Experimental findings from patent US20210095024A1 (Janssen / Centocor, published 2021) are described below.

Numbering of substitutions follows the chain as printed.

The EC50 is the concentration giving half of the maximal effect.

Test [1] concerns the target T1, recombinant CEACAM5 (R&D Systems #4128-CM) (human, UniProt P06731 35-685).
T1 construct: Bought protein
T1 sequence: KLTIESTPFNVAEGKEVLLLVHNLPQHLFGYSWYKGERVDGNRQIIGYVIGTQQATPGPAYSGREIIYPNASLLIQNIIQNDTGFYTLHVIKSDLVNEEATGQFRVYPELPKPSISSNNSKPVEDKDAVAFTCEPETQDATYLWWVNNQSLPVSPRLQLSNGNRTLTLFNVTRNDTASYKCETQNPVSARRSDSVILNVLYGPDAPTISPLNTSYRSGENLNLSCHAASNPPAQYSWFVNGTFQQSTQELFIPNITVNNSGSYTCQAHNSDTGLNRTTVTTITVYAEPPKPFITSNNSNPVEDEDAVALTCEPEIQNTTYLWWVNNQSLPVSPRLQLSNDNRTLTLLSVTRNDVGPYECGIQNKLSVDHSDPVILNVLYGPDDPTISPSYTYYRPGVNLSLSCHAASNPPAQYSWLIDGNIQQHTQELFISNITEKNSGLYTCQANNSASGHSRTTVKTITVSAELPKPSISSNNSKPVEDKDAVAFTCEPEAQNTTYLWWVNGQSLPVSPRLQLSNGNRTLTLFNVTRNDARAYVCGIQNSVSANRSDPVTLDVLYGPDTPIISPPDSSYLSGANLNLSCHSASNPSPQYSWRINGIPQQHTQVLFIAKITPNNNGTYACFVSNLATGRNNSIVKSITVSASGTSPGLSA
In words: ELISA, plate-coated recombinant CEACAM5. As for the experimental part: (§1) Plates were coated with 50 μl of 1 μg/ml of CEACAM1 (#2244-CM, R&D Systems) overnight at 4° C. The next day, in 16 h, plates were blocked with 200 μl 0.4% bovine serum albumin (BSA) (Sigma, A9647) in PBS for 1 hr at room temperature. Plates were washed once with 300 μl of 0.02% Tween-20 in PBS on a Biotek plate washer. 1/2 log dilutions of CEACAM mAbs starting from 10 μg/ml to 0.0001 ug/ml in 0.4% BSA, or PBS only, were plated for each antibody. 50 μl of each dilution were added to coated plates. Plates were incubated at room temp for approx 30 min. Plates were then washed 3 times with 300 μl of 0.02% Tween-20 in PBS using a Biotek plate washer. […] Plates were incubated at room temp for approximately 30 min. Plates were then washed 3 times with 300 ul of PBS/0.02% Tween-20 on a Biotek plate washer. 50 μl of 3,3′,5,5′-Tetramethylbenzidine (TMB, Sigma T0440) were added, allowed for color development, followed by adding 50 ul of 4N H₂SO₄. Plates were analyzed at 450 nm using EnVision Microplate Reader (PerkinElmer). Isotype control (CNT08939 antibody, specific to RSV virus, having the human IgG2 sigma backbone) was plated on last 3 plates at a concentration 10 μg/ml. Absorbance at 450 nm (FIG. 2) was analyzed using XY scatter plots and non-linear fit curves were generated after log transformation, and EC50 values were calculated, using GraphPad Prism (GraphPad Software, San Diego, Calif.). For several antibodies the EC50 could not be calculated using GraphPad Prism due to poor curve fit; in these cases the EC50 values were visually estimated at the midpoint of the available curve. EC50 values for binding to recombinant CEACAM1 are represented in Table 1.
(§2) 3.1 Binding to recombinant CEACAM5 and CEACAM6. Cross-screening for specificity of purified phage and hybridoma antibodies to recombinant CEACAM5 (R&D Systems #4128-CM) and CEACAM6 (R&D Systems #3934-CM) was performed using ELISA, according to the protocol described in Example 2. Binding curves for binding of mAbs to CEACAM5 are shown on FIG. 5a, and to CEACAM6 on FIG. 5b.

In test [2] the target is T2, recombinant CEACAM6 (R&D Systems #3934-CM) (human, UniProt P40199 35-320).
T2 construct: Bought protein
T2 sequence: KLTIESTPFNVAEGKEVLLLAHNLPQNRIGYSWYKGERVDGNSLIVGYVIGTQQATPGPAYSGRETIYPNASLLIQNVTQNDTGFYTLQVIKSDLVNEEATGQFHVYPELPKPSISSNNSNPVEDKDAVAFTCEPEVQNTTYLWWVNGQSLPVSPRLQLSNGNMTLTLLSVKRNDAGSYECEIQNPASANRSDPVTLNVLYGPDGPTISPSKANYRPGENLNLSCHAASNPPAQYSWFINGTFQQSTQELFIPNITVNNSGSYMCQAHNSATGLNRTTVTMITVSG
In words: ELISA, plate-coated recombinant CEACAM6. The method, then: as §1, §2
A general note: In an ELISA, binding on a coated surface is turned into a signal by an enzyme label.

Test [3] has as its target T3, CEACAM6 overexpressed on HEK293T cells (human, UniProt P40199 35-320).
T3 construct: also called CEACAM6 expressing HEK293T cells
T3 sequence: T2 sequence
In words: flow cytometry on HEK293T cells overexpressing CEACAM6. On the technique in general: A flow cytometer gives signals particle by particle.

The target of test [4] is T4, full length CEACAM1 overexpressed on HEK293T cells (human, UniProt P13688 35-526).
T4 construct: also called CEACAM-1 expressing HEK293T cells
T4 sequence: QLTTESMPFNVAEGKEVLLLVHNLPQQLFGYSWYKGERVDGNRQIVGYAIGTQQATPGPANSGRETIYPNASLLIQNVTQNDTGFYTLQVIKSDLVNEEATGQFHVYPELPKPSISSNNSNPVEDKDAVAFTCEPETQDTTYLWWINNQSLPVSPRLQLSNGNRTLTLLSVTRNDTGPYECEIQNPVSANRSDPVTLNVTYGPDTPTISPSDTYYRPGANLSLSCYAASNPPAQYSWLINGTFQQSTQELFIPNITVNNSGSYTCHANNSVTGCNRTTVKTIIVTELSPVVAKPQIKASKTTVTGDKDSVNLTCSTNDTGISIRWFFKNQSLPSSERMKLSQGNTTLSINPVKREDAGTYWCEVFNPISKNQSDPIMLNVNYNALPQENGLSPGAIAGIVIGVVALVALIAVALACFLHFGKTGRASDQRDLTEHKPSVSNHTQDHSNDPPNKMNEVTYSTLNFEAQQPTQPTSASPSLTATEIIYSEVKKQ
The test is described as follows: flow cytometry on HEK293T cells overexpressing CEACAM1. An excerpt: CEACAM1 overexpressing cells were then subcloned and sorted for purified populations of CEACAM1 positive cells, using standard techniques (FIG. 3). These cells were then used to generate binding curves by flow cytometry (FIG. 4).

In test [5] the target is T5, CEACAM5 overexpressed on HEK293T cells (human, UniProt P06731 35-685).
T5 construct: also called CEACAM5 expressing HEK293T cells
T5 sequence: T1 sequence
In words: flow cytometry on HEK293T cells overexpressing CEACAM5.

B1: CCMB03.004 (antibody, V domains shown)
VH: QVQLVQSGSELRTPGASVKVSCKASGYTFTSYGLSWVRQAPGQGLEWMGWINTNTGNPTYAQGFTGRFVFSLDTSVSTAYLQISSLKAEDTAVYYCARKGIWGPFDYWGQGTLVTVSS
VL: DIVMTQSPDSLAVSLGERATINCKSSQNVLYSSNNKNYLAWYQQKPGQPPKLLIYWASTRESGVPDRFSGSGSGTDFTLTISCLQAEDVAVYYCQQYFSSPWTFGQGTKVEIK
notes: also called mAb 2
Regarding B1, the 50% effective concentration (EC50) came out at 16.4 µg/mL in test [1], 5 µg/mL in test [2] and 0.00515 µg/mL in test [3].

B2: CCMB04.004 (antibody, V domains shown)
VH: B1 VH with R12K, T13K, S31N, L34V, S35N, A61V, S77T, Q82H, Y95F, Y107H
VL: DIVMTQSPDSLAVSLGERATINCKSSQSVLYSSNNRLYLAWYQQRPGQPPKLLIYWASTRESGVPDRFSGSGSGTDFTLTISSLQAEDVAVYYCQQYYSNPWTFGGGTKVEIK
notes: also called mAb 3
For B2, the EC50 came to 6.46 µg/mL in test [1], 5.57 µg/mL in test [2] and 0.0109 µg/mL in test [3].

B3: CCMB42.004 (antibody, V domains shown)
VH: EVQLLESGGGLVQPGGSLRLSCAASGFTFNTYGMSWARQAPGKGLEWVSTISGSGDNTYYADSVKGRFTISRDNSKNTLYLQINSLRAEDTAVYYCAKGGLLWFGELPYPFDYWGQGTLVTVSS
VL: QSALTQPASVSGSPGQSITISCTGTSSDVGGYNYVSWYQQHPGKAPKLMIYDVSNRPSGVSNRFSGSKSDNTASLTISGLQAEDEADYYCSSYISTSTLYVFGIGTKVTVL
notes: also called mAb 10
As to B3, the EC50 in test [1] was 1.14 µg/mL. Besides, the binding result in test [3] is recorded as “no binding”.

B4: CCMB23.004 (antibody, V domains shown)
VH: QLQLQESGPGLVKPSETLSLTCTVSADSISRTSYYWGWIRQPPGKGLEWIGTIYYSGSTYYNPSLKSRVTISVDTSRNHFSLTLNSVTAADTAVYYCARQIAVGAHRFDYWGQGTLVTVSS
VL: DIQLTQSPSFLSASVGDRVTITCRASQGISSYLAWYQQKPGKAPKLLIYAASTLQSGVPSRFSGSGSGTEFTLTISSLQPEDFATYYCQQLNSYPWTFGQGTKVEIK
notes: also called mAb 8
B4: the EC50 in test [4] stood at 0.00419 µg/mL. Besides, the binding result in test [5] and in test [3] was “no binding” throughout.

B5: CCMB61.004 (antibody, V domains shown)
VH: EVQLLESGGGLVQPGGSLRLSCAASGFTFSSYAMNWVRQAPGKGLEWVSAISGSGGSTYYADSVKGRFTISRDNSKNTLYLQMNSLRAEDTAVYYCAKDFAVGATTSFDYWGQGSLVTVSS
VL: SSELTQDPAVSVALGQTVRITCQGDSLRSYYVSWYQQKPGQAPTLVIYGKNNRPSGIPDRFSGSSSGNTPSLTITGAQAEDEADYYCNSRDSSNHLVVFGGRTKLTVL
notes: also called mAb 11
Consider B5, for which the 50% effective concentration (EC50) in test [2] is 1240 µg/mL; in test [4] it was 0.0353 µg/mL. Besides, the binding result in test [5] was “no binding”.

B6: CCMB66.004 (antibody, V domains shown)
VH: EVQLVQSGAEVKKPGESLKISCKGSGYSFTSYWIGWVRQMPGKGLEWMGIIYPGDSDTRYSPSFQGQVTISADKSISTAYLQWSSLKASDTAMYYCARGYPAPTVNDLDYWGQGTLVTVSS
VL: not shown
notes: also called mAb 12
For the molecule B6, in test [1], the EC50 turned out to be 1690 µg/mL. In addition, in test [3], the binding result is on record as “no binding”.

B7: CCMB18.004 (antibody, V domains shown)
VH: QVQLVQSGSELKKPGASVKVSCKASGYTLTDYGMNWVRQAPGQGLQWMGWINTNTGNPTYAQGFTGRFVFSLDTSVSTAYLQISSLKTEDTAVYYCARKAIWGWFDPWGQGTLVTVSS
VL: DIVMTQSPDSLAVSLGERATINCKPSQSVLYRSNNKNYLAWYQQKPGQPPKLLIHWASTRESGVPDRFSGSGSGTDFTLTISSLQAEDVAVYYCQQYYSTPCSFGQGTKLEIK
notes: also called mAb 6
B7: the EC50 in test [1] stood at 4.32 µg/mL; in test [2] it was 6.05 µg/mL; in test [3], 0.0118 µg/mL.

B8: CCMB35.004 (antibody, V domains shown)
VH: EVQLLESGGGLVQPGESLRLSCAASGLTFSDYAMNWVRQAPGKGLYWVSSISGTGGSTYYADSLKGRFTISRDNSKNTLYLQMNSLRAEDTAVYYCAKDIAVGVTAYFDHWGQGTLVTVSS
VL: SSELTQDPAVSVALGQTVRITCQGDSLRTYSASWYQQKPGQAPVLVIYGKNNRPSGIPDRFSGSSSGNTASLTITGAQAEDEADYYCNSRDSRGNLLVVFGGGTKLTVL
notes: also called mAb 9
B8 showed an EC50 in test [4] of 0.0275 µg/mL. The binding result in test [5] and in test [3] was “no binding” each time.

B9: CCMB09.004 (antibody, V domains shown)
VH: QVQLQESGPGLVKPSQTLSLTCTVTGDSIRSGGHYWSWIRQHPGKGLEWIGNIYYSGSTHYNPSLKSRLTISVDTSKNQFSLKVSSVTAADTAVYYCARGRLLWFGEPQDFQHWGQGTLVTVSS
VL: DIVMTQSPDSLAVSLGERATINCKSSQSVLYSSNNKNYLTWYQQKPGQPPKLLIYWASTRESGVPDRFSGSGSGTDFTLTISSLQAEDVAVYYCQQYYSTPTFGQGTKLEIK
notes: also called mAb 5
As for B9, the EC50 is 4.46 µg/mL in test [1], 5.13 µg/mL in test [2] and 0.0158 µg/mL in test [3].

B10: CCMB20.004 (antibody, V domains shown)
VH: EVQLLESGGGLVQPGESLRLSCAASGFTFNNYAMTWVRQAPGKGLDWVSSISGTSANTYYADAVKGRFTISRDNSMTTLYLQMNSLRAEDTAVYYCAKPILTLFGELPLDYWGQGTLVTVSS
VL: EIVMTQSPATLSVSPGERATLSCRASQSVSSNLAWYQQKTGQAPRLLIYGASTRATAFPARFSGSGSGTEFTLTISSLQSEDFAVYYCQQYNNWPLTFGGGTKVEIK
notes: also called mAb 7
On to B10, for which the EC50 in test [1] turned out to be 4.27 µg/mL. The binding result in test [3] is “no binding”.

B11: CCMB02.004 (antibody, V domains shown)
VH: EVQLLESGGGLVQPGGSLRLSCAASGFTFINYAMNWVRLTPGKGLEWVSVISGSGSGTYYADSVKGRFTVSRDNSKNTLYLQMNSLRVEDTAIYYCASPPPMVRGVIITIGNYWGQGALVTVSS
VL: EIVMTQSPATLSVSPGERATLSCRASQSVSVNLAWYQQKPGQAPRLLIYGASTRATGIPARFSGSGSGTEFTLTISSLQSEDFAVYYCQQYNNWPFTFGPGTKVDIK
notes: also called mAb 1
Take B11: the EC50 in test [1] is 50 µg/mL. In addition, in test [3], the binding result was “no binding”.

B12: CCMB07.004 (antibody, V domains shown)
VH: B11 VH with I30T, T40A
VL: B10 VL with S31V, T40P, A57S, F58I, A60T, L96F, G100P
notes: also called mAb 4
For B12, in test [1], the EC50 worked out at 9.77 µg/mL. In addition, the binding result in test [3] is “no binding”.
